In patent publication US7223547B2, “Polypeptides having a functional domain of interest and methods of identifying and using same” (Cytogen Corporation, priority 1995, dated 2007):
* marks the point of attachment. Biotin = O=C1N[C@H]2[C@H](CS[C@H]2CCCCC(=O)*)N1

How the values were obtained:
SH3P5, mouse Cortactin = target: T1, SH3P5, mouse Cortactin (mouse, UniProt Q60598 1-546); test: plaque-lift screen of mouse 16 day embryo cDNA expression library with biotinylated peptide complexed to SA-AP
T1 construct: Protein encoded by a cDNA clone, on plaque-lift filters; not shown: N-terminal phi10 leader (T7-Tag) common to all lambda EXlox recombinants
T1 sequence (Q60598 whole entry S298P): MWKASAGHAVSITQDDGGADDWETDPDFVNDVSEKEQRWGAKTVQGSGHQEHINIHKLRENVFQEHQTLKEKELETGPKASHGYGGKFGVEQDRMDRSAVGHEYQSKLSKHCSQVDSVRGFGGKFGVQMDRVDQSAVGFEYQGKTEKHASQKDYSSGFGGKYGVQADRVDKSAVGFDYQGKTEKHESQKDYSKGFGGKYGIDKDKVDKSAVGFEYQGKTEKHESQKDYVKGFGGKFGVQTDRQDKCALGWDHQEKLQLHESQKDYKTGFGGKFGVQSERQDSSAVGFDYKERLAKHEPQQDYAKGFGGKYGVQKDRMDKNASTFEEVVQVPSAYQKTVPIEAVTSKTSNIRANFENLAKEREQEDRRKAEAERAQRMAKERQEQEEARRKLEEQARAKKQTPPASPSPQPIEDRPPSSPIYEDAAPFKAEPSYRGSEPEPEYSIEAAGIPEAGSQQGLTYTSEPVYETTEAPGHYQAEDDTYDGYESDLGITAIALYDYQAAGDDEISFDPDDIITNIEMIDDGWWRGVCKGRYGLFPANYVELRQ

SH3P6, mouse MLN50 = target: T2, SH3P6, mouse MLN50 (mouse, UniProt Q61792 59-263); test: as above
T2 construct: Protein encoded by a cDNA clone, on plaque-lift filters; not shown: N-terminal phi10 leader (T7-Tag) common to all lambda EXlox recombinants
T2 sequence: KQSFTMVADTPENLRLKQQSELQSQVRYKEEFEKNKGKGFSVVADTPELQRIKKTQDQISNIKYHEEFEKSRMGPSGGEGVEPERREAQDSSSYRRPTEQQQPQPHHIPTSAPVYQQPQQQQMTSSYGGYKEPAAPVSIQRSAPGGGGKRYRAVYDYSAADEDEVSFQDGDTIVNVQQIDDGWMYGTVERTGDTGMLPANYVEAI

[1] = target: T3, SH3P7, a novel mouse gene (mouse, UniProt Q62418 1-436); test: as above
T3 construct: Protein encoded by a cDNA clone, on plaque-lift filters; not shown: N-terminal phi10 leader (T7-Tag) common to all lambda EXlox recombinants
T3 sequence (Q62418 other isoform, or with tags, fused parts or gaps): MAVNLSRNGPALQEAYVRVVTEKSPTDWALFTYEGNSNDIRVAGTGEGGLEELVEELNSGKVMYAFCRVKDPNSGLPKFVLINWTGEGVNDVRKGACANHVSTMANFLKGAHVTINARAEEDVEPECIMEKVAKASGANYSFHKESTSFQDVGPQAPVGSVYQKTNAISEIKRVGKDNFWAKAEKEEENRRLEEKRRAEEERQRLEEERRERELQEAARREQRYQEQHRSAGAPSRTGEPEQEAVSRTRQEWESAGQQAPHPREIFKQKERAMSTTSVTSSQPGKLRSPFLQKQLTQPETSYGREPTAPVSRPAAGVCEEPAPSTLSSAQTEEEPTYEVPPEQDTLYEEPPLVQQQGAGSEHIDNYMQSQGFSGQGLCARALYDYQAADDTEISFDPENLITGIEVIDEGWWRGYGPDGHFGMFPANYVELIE

[2] = target: T4, SH3P8, a novel mouse gene (mouse, UniProt Q62419 1-368); test: as above
T4 construct: Protein encoded by a cDNA clone, on plaque-lift filters; not shown: N-terminal phi10 leader (T7-Tag) common to all lambda EXlox recombinants
T4 sequence (Q62419 other isoform, or with tags, fused parts or gaps): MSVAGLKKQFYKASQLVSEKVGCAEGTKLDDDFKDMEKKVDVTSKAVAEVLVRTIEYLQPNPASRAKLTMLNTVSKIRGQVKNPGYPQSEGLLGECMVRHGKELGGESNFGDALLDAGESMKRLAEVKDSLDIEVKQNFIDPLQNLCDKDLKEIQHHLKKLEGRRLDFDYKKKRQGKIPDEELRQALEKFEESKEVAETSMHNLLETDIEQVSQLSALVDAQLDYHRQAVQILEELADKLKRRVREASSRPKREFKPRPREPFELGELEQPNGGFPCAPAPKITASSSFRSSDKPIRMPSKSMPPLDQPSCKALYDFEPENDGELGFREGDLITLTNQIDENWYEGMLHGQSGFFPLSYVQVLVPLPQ

[3] = target: T5, SH3P9, a novel mouse gene (mouse, UniProt O08539 2-588); test: as above
T5 construct: Protein encoded by a cDNA clone, on plaque-lift filters; also called SH3P9 (mouse); not shown: N-terminal phi10 leader (T7-Tag) common to all lambda EXlox recombinants
T5 sequence: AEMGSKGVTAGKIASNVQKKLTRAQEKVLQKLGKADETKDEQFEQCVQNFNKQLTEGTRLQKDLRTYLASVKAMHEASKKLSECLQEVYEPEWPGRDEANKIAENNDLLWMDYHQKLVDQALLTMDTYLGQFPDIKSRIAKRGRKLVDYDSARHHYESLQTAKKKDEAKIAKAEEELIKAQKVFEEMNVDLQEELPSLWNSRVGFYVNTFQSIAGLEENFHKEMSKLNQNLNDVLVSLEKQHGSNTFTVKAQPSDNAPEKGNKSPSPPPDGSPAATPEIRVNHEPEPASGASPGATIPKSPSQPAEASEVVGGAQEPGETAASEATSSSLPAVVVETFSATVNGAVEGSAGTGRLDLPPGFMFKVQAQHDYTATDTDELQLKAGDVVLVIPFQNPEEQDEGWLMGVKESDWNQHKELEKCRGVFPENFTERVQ

SH3P10, mouse HS1 = target: T6, SH3P10, mouse HS1 (mouse, UniProt P49710 1-486); test: as above
T6 construct: Protein encoded by a cDNA clone, on plaque-lift filters; also called SPY75/HS1; not shown: N-terminal phi10 leader (T7-Tag) common to all lambda EXlox recombinants
T6 sequence: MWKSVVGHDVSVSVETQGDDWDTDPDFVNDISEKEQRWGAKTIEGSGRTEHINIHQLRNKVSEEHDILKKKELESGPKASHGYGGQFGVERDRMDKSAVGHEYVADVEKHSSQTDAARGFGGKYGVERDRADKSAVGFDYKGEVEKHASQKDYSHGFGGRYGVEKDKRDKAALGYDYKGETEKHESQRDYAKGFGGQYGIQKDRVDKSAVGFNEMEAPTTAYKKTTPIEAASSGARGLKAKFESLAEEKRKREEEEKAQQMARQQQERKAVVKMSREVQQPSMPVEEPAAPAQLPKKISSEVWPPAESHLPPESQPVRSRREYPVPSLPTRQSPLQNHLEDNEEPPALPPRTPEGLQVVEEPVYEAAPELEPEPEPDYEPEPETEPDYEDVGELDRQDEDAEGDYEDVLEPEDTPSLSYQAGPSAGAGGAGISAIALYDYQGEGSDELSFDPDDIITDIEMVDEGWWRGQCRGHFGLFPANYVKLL

SH3P11, mouse Crk = target: T7, SH3P11, mouse Crk (mouse, UniProt Q64010 1-304); test: as above
T7 construct: Protein encoded by a cDNA clone, on plaque-lift filters; not shown: N-terminal phi10 leader (T7-Tag) common to all lambda EXlox recombinants
T7 sequence (Q64010 whole entry): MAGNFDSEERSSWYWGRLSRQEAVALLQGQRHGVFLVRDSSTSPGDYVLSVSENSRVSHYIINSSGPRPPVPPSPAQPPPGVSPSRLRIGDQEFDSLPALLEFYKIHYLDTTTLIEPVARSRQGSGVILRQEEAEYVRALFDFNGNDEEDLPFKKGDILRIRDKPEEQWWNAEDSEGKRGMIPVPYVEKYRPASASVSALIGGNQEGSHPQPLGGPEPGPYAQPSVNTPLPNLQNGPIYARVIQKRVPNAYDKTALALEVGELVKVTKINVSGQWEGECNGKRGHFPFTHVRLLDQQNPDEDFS

[4] = target: T8, SH3P12, a novel mouse gene (mouse, UniProt Q62417 1-1290); test: as above
T8 construct: Protein encoded by a cDNA clone, on plaque-lift filters; not shown: N-terminal phi10 leader (T7-Tag) common to all lambda EXlox recombinants
T8 sequence: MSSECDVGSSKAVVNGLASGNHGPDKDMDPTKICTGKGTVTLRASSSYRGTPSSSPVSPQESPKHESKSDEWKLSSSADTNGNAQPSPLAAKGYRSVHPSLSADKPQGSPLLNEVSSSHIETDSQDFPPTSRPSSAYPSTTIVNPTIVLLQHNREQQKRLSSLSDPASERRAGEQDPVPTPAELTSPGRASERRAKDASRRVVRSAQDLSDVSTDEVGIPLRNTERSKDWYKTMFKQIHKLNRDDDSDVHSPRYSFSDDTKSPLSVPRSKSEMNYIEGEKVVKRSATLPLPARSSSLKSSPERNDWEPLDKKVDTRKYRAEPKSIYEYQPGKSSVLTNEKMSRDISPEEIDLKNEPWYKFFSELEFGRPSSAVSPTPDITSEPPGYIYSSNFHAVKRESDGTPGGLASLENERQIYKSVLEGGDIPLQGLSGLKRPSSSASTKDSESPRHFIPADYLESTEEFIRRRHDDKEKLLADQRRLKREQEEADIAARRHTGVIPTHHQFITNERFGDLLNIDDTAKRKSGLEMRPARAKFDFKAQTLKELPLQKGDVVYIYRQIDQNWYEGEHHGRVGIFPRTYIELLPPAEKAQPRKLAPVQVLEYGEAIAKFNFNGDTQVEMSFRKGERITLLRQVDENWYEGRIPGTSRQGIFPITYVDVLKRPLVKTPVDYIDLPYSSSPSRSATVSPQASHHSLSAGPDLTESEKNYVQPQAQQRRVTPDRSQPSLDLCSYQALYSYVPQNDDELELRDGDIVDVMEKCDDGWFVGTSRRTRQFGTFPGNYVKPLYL

[5] = target: T9, SH3P13, a novel mouse gene (mouse, UniProt Q62421 1-347); test: as above
T9 construct: Protein encoded by a cDNA clone, on plaque-lift filters; not shown: N-terminal phi10 leader (T7-Tag) common to all lambda EXlox recombinants
T9 sequence: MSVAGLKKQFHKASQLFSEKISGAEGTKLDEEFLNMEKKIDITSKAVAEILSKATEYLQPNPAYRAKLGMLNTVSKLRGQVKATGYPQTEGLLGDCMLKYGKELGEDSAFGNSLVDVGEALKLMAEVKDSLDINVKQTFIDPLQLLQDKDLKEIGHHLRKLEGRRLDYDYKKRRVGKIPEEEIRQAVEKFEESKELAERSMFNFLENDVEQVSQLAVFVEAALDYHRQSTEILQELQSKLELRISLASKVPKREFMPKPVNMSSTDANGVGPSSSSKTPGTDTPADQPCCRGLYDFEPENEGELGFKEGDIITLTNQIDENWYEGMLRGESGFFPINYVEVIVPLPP

[6] = target: T10, SH3P9, a novel human gene (human, UniProt O00499 44-593); test: plaque-lift screen of human prostate cancer and bone marrow cDNA expression libraries with biotinylated peptide complexed to SA-AP (T12SRC.4 also present in the initial screens)
T10 construct: Protein encoded by a cDNA clone from a lambda gt11 or gt22a human library, on plaque-lift filters; The vector fusion partner is not described; also called human homolog of SH3P9
T10 sequence: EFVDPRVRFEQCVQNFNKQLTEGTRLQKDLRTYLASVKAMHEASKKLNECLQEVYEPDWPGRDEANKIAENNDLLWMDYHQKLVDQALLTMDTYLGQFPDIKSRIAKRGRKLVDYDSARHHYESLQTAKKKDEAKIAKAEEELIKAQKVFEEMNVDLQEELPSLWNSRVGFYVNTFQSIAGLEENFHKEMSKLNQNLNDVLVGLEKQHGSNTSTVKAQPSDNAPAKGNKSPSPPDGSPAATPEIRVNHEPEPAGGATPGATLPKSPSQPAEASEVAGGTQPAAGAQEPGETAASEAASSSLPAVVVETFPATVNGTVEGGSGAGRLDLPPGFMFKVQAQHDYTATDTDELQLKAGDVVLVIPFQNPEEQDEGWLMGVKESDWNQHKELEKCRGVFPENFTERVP

SH3P14, human H74 = target: T11, SH3P14, human H74 (human, UniProt Q9UNF0 118-486, limits assumed); test: as above
T11 construct: Protein encoded by a cDNA clone from a lambda gt11 or gt22a human library, on plaque-lift filters
T11 sequence: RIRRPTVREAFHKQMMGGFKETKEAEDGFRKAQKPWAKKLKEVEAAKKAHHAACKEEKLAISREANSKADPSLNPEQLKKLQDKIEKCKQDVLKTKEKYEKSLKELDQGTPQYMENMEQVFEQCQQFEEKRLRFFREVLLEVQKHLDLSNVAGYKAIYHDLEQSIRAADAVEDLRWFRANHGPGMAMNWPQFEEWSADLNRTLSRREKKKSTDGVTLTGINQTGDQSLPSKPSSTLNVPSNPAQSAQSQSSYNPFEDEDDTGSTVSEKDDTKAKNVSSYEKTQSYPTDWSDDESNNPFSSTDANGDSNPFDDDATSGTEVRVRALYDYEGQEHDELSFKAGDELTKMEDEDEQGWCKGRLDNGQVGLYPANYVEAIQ

[7] = target: T12, SH3P17, a novel human gene (human, UniProt Q15811 729-1220); test: as above
T12 construct: Fragment encoded by a cDNA clone, with at least four SH3 domains, on plaque-lift filters
T12 sequence: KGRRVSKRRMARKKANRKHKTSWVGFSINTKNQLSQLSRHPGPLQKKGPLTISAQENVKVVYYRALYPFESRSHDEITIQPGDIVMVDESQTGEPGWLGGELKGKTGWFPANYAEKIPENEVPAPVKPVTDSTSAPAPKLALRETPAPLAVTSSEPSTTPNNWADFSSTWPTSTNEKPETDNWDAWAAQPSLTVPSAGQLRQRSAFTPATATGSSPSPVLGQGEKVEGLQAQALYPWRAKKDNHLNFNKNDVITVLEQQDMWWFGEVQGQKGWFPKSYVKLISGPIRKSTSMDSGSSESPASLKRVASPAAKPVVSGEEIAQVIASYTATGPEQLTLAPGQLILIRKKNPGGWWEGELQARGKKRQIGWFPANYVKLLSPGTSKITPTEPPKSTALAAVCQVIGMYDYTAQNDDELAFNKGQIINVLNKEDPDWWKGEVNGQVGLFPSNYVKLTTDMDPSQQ

[8] = target: T13, SH3P18, a novel human gene (human, UniProt Q9NZM3 952-1192); test: as above
T13 construct: Fragment encoded by a cDNA clone, with at least three SH3 domains, on plaque-lift filters
T13 sequence: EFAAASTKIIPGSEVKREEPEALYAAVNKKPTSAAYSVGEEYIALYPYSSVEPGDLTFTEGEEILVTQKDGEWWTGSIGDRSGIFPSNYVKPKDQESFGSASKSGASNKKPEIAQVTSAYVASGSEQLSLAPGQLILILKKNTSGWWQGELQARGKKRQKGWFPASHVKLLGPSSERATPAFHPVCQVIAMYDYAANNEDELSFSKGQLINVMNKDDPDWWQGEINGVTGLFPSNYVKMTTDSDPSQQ

Measured: binding result

B1: pCort (biotin-SGSGSRLTPQSKPPLPPKPSWVSR-NH2) (peptide)
peptide: Biotin-SGSGSRLTPQSKPPLPPKPSWVSR-NH2
SMILES: CC(C)C[C@H](NC(=O)[C@H](CCCNC(=N)N)NC(=O)[C@H](CO)NC(=O)CNC(=O)[C@H](CO)NC(=O)CNC(=O)[C@H](CO)NC(=O)CCCC[C@@H]1SC[C@@H]2NC(=O)N[C@@H]21)C(=O)N[C@H](C(=O)N1CCC[C@H]1C(=O)N[C@@H](CCC(N)=O)C(=O)N[C@@H](CO)C(=O)N[C@@H](CCCCN)C(=O)N1CCC[C@H]1C(=O)N1CCC[C@H]1C(=O)N[C@@H](CC(C)C)C(=O)N1CCC[C@H]1C(=O)N1CCC[C@H]1C(=O)N[C@@H](CCCCN)C(=O)N1CCC[C@H]1C(=O)N[C@@H](CO)C(=O)N[C@@H](Cc1c[nH]c2ccccc12)C(=O)N[C@H](C(=O)N[C@@H](CO)C(=O)N[C@@H](CCCNC(=N)N)C(N)=O)C(C)C)[C@@H](C)O
notes: Synthetic peptide with the Cortactin SH3 recognition unit motif; used complexed with streptavidin-alkaline phosphatase
not listed: [6] | SH3P14, human H74 | [7] | [8]
binds: all other assays above

B2: T12SRC.1 (biotin-GILAPPVPPRNTR-NH2) (peptide)
peptide: Biotin-GILAPPVPPRNTR-NH2
SMILES: CC[C@H](C)[C@H](NC(=O)CNC(=O)CCCC[C@@H]1SC[C@@H]2NC(=O)N[C@@H]21)C(=O)N[C@@H](CC(C)C)C(=O)N[C@@H](C)C(=O)N1CCC[C@H]1C(=O)N1CCC[C@H]1C(=O)N[C@H](C(=O)N1CCC[C@H]1C(=O)N1CCC[C@H]1C(=O)N[C@@H](CCCNC(=N)N)C(=O)N[C@@H](CC(N)=O)C(=O)N[C@H](C(=O)N[C@@H](CCCNC(=N)N)C(N)=O)[C@@H](C)O)C(C)C
notes: Used complexed with streptavidin-alkaline phosphatase; also called variant of the pSrcCII peptide
binds: [6] | SH3P14, human H74 | [7] | [8]
